Experimental findings from article PMC7835374 (Nature Communications, 2021) are described below.

The target in the assay is recombinant full-length hemagglutinin H6 (A/Taiwan/2/2013) (Influenza A virus A/Taiwan/2/2013 (H6N1), strain). In words: BLI. Conditions: both partners purified.

Broadly, the Kd is a measure of binding affinity in units of concentration. In general, koff refers to a measure of how fast the partners let go of each other. One may read the kon as a measure of how fast the partners come together.

B1: 3I14 IgG1 (wild type) (antibody, V domains shown)
VH: QVQLLESGGGVVQPGRSLRLSCAASGFTFSNYGMHWVRQAPGKGLEWVAIISFDGSKKYYANSVKGRSTISRDNSKNTLSLQMNSLGPEDTALYYCAKLPSPYYFDSRFVWVAASAFHFWGQGILVTVSS
VL: NFMLTQPPSASGTPGQRVTISCSGSSSNIGGNTVHWFQQLPGTAPKLLIYTNSLRPSGVPDRFSGSKSGTSASLAISGLQSEDEADYYCAAWDDSLNGQVFGGGTKLTVL
notes: copies: 2 + 2
As for B1, the Kd was 2.9 nM, the koff was determined as 0.000152 s⁻¹ and the kon is 51900 M⁻¹ s⁻¹.
